From patent US20220112288A1 (published 2022)
Numbering of substitutions follows the chain as printed.

B1: 75110_05A11A (antibody, V domains shown)
VH: EVQLVESGGGLVKPGGSLTLSCAASGFTFSNTWMSWVRQAPGKGLEWVGRIKSKIDGGTTDYAAPVKGRFTISRDDSKNTLYLQMNSLKTEDTAVYYCTTSGTYSSGWGLFDYWGQGTLVTVSS
VL: DIQMTQSPSSLSASVGDRVTITCQASQDISNYLNWYQQKPGKAPKLLIYDTSNLEAGVPSRFSGSGSGTHFTLTISSLQPEDIATYYCQQYDNLPFTFGGGTRVEIK
notes: Tested as antibody purified from AlivaMab Mouse hybridoma supernatant (captured by anti-mouse IgG Fc)
B2: 75110_05G15A (antibody, V domains shown)
VH: QVQLQESGPGLVKPSQTLSLTCTVSGGSISSGGYFWSWIRQHPGKGLEWIGCIYYSGSTYYIPSLKSRVTISVDTSKNQFSLKLRSVTAADTAVYYCARDGYDYWYFDLWGRGTLVTVSS
VL: not shown
B3: 75110_05E13A (antibody, V domains shown)
VH: EVQLVESGGDLVKPGGSLRLSCAASGFSFSNAWMSWVRQAPGKGLEWVGRVESKTDGGTTDYAAPVKDRFTISRDDSKYTLYLQMNSLKTEDSAVYYCTIGGGFGLELYGFFDYWGQGTLVTVSS
VL: DIQMTQSPSTLSASVGDRVTITCRASQSISSWLAWYQQKPGKAPMLLIYKASSLESGVPSRFSGSGSGTEFTLTISSLQPDDFATYYCLQYNSYYTFGQGTKLEIK
notes: as for B1
B4: 75110_05E05A (antibody, V domains shown)
VH: QVQLQESGPGLVKPSETLSLTCTVSGGSIGSYYWSWIRQPAGKGLEWIGRIYTSGSTNYNPSLKSRVTMSFDTSKNQFSLKLNSVTAADTAVYYCATDGGVGDSLDYWGQGTLVTVSS
VL: DIVMTQTPLSLPVTPGEPASISCRSSQSLLDSDDGNTYLDWYLQKPGQSPQLLIYTLSYRASGVPDRFSGSGSGTDFTLKISRVEAEDVGVYYCMQHIEFPFTFGPGTKVDIK
notes: as for B1
B5: 75110_04P08A (antibody, V domains shown)
VH: QVQLQQWGAGLLKPSETLSLTCAVYGGSLSGYYWSWIRQSPGKGLEWIGEINQSGSTNYNPSLKSRVTISVDTSKDQFSLRLTSVTAADTAVYYCTRVLNWFDPWGRGTLVTVSS
VL: DIQMTQSPSSVSASVGDRVTLTCRASQDISNWLAWYQQKPGKAPKLLIYAASSLQSGVPSRFSGSGSGTDFTLTISSLQTEDFATYYCQQANSFPYTFGQGTKLEIK
notes: as for B1
B6: 75110_05B13A (antibody, V domains shown)
VH: QVLLEQWGAGLLKPSETLSLTCAVYGGSFSGYYWTWIRQPPGKGLEWIGEINHRGSTNYNPSLKSRVTISIDTSKNQFSLKVKSVTAADTAMYYCTRPDSNWFDPWGQGTLVTVSS
VL: B5 VL with L21I, Y49F, T80P, Y96L, Q100G, L104V
notes: as for B1
B7: 75110_05L07A (antibody, V domains shown)
VH: EVQLVESGGGLVQPGGSLRLSCAASGFTFSSYWMSWVRQAPGKGLEWVANINQDGSDKYYVDSVKGRFTISRDNVKNSLYLQINSLRAEDTAVYYCAREGGQWLTLDYWGQGTLVTVSS
VL: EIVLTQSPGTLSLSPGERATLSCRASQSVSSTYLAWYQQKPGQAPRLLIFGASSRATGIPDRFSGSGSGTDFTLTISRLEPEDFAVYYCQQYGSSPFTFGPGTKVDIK
notes: Tested as antibody purified from AlivaMab Mouse hybridoma supernatant (human variable domains, kappa; mouse Fc, captured on anti-mouse IgG Fc sensors); also called ADS75110 purified AMM Ab
B8: 75110_08D24A (antibody, V domains shown)
VH: QVQLQESGPGLVKPSETLSLTCTVSGGSISGFYWSWIRQPAGKGLEWIGRIYTSENTNYNPSLKSRVTMSVDTSKNQFSLKLSSVTAADTAVYYCARDREGYYYYGMDVWGQGTTVTVSS
VL: B1 VL with D50A, T51A, A56T, H70D, L73F, N93S, F96I, G100Q, V104L
notes: as for B7
B9: 75110_06C16A (antibody, V domains shown)
VH: B8 VH with K13T, T21S, G31D, F32Y, A41G, T53S, E55G, N56S, Y94F, G101D
VL: B1 VL with Q27H, D50A, T51A, A56T, H70D, T72S, L73F, N93H, F96L, R103K
notes: as for B7
B10: 75110_06G04A (antibody, V domains shown)
VH: QVQLLESGPGLVKPSETLSLTCTVSGGSISSYYWSWIRQPAGKGLEWIGRIYISGSTNYNPSLKSRVTMSIDTSENQFSLNLSSVTAADTAVYYCARELERPYYYGMDVWGQGTTVTVSS
VL: B1 VL with D50N, T51A, N53T, A56T, H70D, L73F, F96L, R103K, I106F
notes: as for B7
B11: 75110_06K03A (antibody, V domains shown)
VH: B10 VH with L5Q, S31T, Y52N, I53T, N58T, I71V, E75K, N81K, P102Y
VL: B1 VL with D50Y, T51A, N53I, A56T, H70D, L73F, N93S, F96L, R103K
notes: as for B7
B12: 75110_06E14A (antibody, V domains shown)
VH: B8 VH with G31N, F32Y, Y33F, T53S, E55G, G101D
VL: DIQMTQSPSSLSASVGDRVTITCQASQDISNYLNWYQQKPGKAPKLLIYGASILETGVPSRFTGSGSGTDFTFTISSLQPEDIATYYCQQYDSLPITFGQGTRLEIK
notes: as for B7
B13: 75110_08M20A (antibody, V domains shown)
VH: B8 VH with G8D, G31S, F32Y, T53A, E55G, N56S
VL: B12 VL with N31K, K45N, G50A, I53N, T63S, T85A
notes: as for B7
B14: 75110_06D16A (antibody, V domains shown)
VH: B5 VH with L29F, S40P, Q53H, D72V, D76N, R81K, T83S, T96A, R107Q
VL: B5 VL with L21I, S30A, N31D, L54F, T80P, Y87F
notes: as for B7
B15: 75110_11D03A (antibody, V domains shown)
VH: B7 VH with S56N, D57E, V75A, Y80F, I83M, T105A, T113A
VL: B5 VL with L21I, D28G, N31S, L46F, Y49S, A50G, T80P, Y96W, L104V
notes: as for B7
B16: 75110_07B16A (antibody, V domains shown)
VH: B5 VH with L29F, R81K, T83S, T96A, L99I, P104S, R107Q, T109S
VL: B5 VL with L21I, D28G, N31S, A50D, L54F, E81D
notes: as for B7
B17: 75110_07H07A (antibody, V domains shown)
VH: B7 VH with L4V, N52K, Q53E, D54E, D57E, V75A, I83M, A97V, T105A
VL: B5 VL with A13G, L21I, D28G, N31S, Y49F, A50G, T80P, Y96W, L104V, E105Q
notes: as for B7
B18: 75110_12H17A (antibody, V domains shown)
VH: B7 VH with S31D, N52K, Q53E, S56N, D57E, V75A, Y80F, I83M, T105A, T113A
VL: B5 VL with L21I, D28G, N31S, L46F, Y49S, A50G, S63T, T80P, Y96W, L104V
notes: as for B7
B19: 75110_09G15A (antibody, V domains shown)
VH: B7 VH with S31D, D57E, Y60S, V75A, I83M, V93I, Y94F, T105A
VL: B5 VL with L21I, D28G, N31S, A50G, S76N, T80P, A84T, S93I, Y96W, L104V
notes: as for B7
B20: 75110_09N20A (antibody, V domains shown)
VH: B7 VH with Q53E, D57E, V75A, I83M, A97V, T105A
VL: B5 VL with L21I, D28G, N31S, R61S, S76N, T80P, Y96W, L104V, E105A
notes: as for B7
B21: 75110_12C19A (antibody, V domains shown)
VH: B7 VH with N52K, Q53E, V75A, I83M, Y94H, A97V, T105A
VL: B5 VL with A13G, L21I, D28G, N31S, A50G, T80P, A84V, Y96W, L104V
notes: as for B7
B22: 75110_07E04A (antibody, V domains shown)
VH: EVQLVESGGGLVQPGGSLRLSCAVSGFTFSSYDMHWVRQATGKGLEWVSTIGTAGDTYYPGSVKGRFTISRENAKKFLYLQMNSLRAGDTAVYYCARGGYYYYGMDVWGQGTTVTVSS
VL: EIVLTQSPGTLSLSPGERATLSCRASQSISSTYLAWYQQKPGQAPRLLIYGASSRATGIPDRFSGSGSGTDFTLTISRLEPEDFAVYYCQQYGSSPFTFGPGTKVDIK
notes: as for B7
B23: 75110_10N21A (antibody, V domains shown)
VH: B22 VH with V24A, A40V, K76N, F77S
VL: EIVLTQSPGTLSLSPGERATLSCRASQSFISSYLAWYQQKPGQAPRLLIYGASSRATGIPDRFSGSGSGTDFTLTISRLDPEDFAVYYCQQSGNSPFTFGPGTKVDVK
notes: as for B7
B24: 75110_13C07A (antibody, V domains shown)
VH: B22 VH with G10V, V24A, S31N, I69L, K76N, F77S, N83H, G99A, Y101G
VL: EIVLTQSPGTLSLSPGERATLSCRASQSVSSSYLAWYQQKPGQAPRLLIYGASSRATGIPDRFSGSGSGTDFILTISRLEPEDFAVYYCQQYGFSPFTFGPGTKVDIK
notes: as for B7

Each binder was assayed against T1, Recombinant human CD4 (R&D Systems, Cat. 10327-CD) (human, UniProt P01730 26-390, limits assumed) (assay: BLI Octet, mAb on anti-mouse Fc sensor, CD4 100/50/25 nM, 1:1 global fit;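 also: antibodies loaded at 10 µg/mL, an unrelated mouse-derived antibody served as internal reference control, association and dissociation phases fitted after Savitzky-Golay smoothing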).
T1 construct: Soluble analyte in the Octet assay

Row | Kd [nM] | Response | koff [s⁻¹] | kon [M⁻¹ s⁻¹] | Binder
1 | 18 | 0.27 | 0.0018 | 97000 | B1
2 | 13 | 0.09 | 0.0022 | 170000 | B2
3 | 2.2 | 0.37 | 0.00022 | 100000 | B3
4 | < 0.001 | 0.18 | < 1e-07 | 34000 | B4
5 | 3.6 | 0.23 | 0.0005 | 140000 | B5
6 | 5.4 | 0.28 | 0.00058 | 110000 | B6

These binders were tested against T2, Rhesus macaque CD4-HIS (Acro Biosystems, Cat. CD4-C52H7) (rhesus macaque, UniProt P16003 26-390) (assay: BLI (Octet Red384); Ab on anti-mouse Fc (AMC) sensor; rhesus CD4-HIS 100/50/25 nM; global 1:1 fit;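 also: antibodies loaded at 10 µg/mL, an unrelated mouse-derived antibody served as internal reference, curves fit over association and dissociation phases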).
T2 construct: Bought reagent; also called Rhesus CD4; rhesus CD4-HIS; not shown: His tag
T2 sequence (P16003 26-390 limits assumed): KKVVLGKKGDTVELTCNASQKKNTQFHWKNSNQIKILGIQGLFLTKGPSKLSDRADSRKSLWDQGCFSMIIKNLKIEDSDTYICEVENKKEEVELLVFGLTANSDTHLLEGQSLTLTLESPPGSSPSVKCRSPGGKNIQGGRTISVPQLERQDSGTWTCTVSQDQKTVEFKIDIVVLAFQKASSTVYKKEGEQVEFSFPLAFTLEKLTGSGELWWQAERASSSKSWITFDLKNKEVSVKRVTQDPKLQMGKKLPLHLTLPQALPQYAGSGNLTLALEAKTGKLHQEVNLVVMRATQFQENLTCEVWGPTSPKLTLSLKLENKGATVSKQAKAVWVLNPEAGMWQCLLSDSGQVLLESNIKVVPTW

Row | Kd [nM] | Response | koff [s⁻¹] | kon [M⁻¹ s⁻¹] | Binder
7 | 7.6 | 0.31 | 0.0011 | 150000 | B7
8 | 53 | 0.05 | 0.0017 | 32000 | B8
9 | 27 | 0.15 | 0.002 | 73000 | B9
10 | 2.1 | 0.05 | 0.0011 | 510000 | B10
11 | 7.8 | 0.13 | 0.00035 | 45000 | B11
12 | 230 | 0.1 | 0.00069 | 3000 | B12
13 | 17 | 0.17 | 0.0022 | 130000 | B13
14 | 240 | 0.09 | 0.022 | 91000 | B14
15 | 3.5 | 0.11 | 0.0018 | 530000 | B15
16 | 13 | 0.17 | 0.0033 | 250000 | B16
17 | 32 | 0.15 | 0.003 | 94000 | B17
18 | 22 | 0.23 | 0.0032 | 150000 | B18
19 | 36 | 0.27 | 0.003 | 84000 | B19
20 | 44 | 0.14 | 0.004 | 92000 | B20
21 | 16 | 0.1 | 0.0038 | 240000 | B21
22 | 2.6 | 0.02 | 0.00042 | 160000 | B22
23 | 8.2 | 0.07 | 0.001 | 130000 | B23
24 | 3.9 | 0.05 | 0.00085 | 220000 | B24
